Data set [1] addresses MUC1*45 (UniProt P15941 1110-1255). As to the kind of experiment: cell-based or functional assay.
Data set [2] relates to breast cancer, pancreatic cancer, and lung cancer cell lines. As to the kind of experiment: Cytotoxicity of ADCs with additional linkers and toxins (FIGS. 30-31). To be noted: breast cancer and pancreatic cancer cell. It is filed as cell-based. The protocol: FIG. 30 is a table showing cytotoxicity of the indicated MUC1* ADCs against indicated cancer cells. IC50 values were determined from xCELLigence data. FIG. 30 discloses “GGFG” as SEQ ID NO: 160, “GGGG” as SEQ ID NO: 161, “GGVA” as SEQ ID NO: 162, “GGVG” as SEQ ID NO: 163.
FIG. 31 is a table showing cytotoxicity of the indicated MUC1* ADCs against indicated cancer cells. IC50 values were determined from PrestoBlue data.
An anti-MUC1* antibody was conjugated to several toxins via a number of different linkers (compounds VIII-XXII).

Data set [3] relates to T47D-MUC1*. As to the kind of experiment: PrestoBlue live/dead cell assay, T47D-MUC1*. It is filed as cell-based, human. To be noted: Presto Blue; 72-120 hour incubation. The protocol:
(§1) Another method of measuring the killing activity of ADCs against target cancer cells is to use the PrestoBlue live/dead cell assay (ThermoFisher). Target cancer cells were seeded in a black-walled, clear-bottom 96-well tissue culture plate at a density of 5000 cells/well (100 μL of a 50,000 cells/mL stock) and incubated overnight in a 37° C./5% CO2 incubator. ADCs were prepared as a 2× solution in corresponding cancer cell growth media and 100 μL of each concentration was added to target cancer cells. As a positive control (100% killing) cancer cells were treated with 1 μM Taxol instead of ADC. After 72 hour-120 hour incubation in a 37° C./5% CO2 incubator, cell viability was measure by fluorescence using the PrestoBlue HS assay (ThermoFisher). Briefly, after the incubation period, 20 μL of PrestoBlue HS solution was added. Fluorescence (Ex 560 nm/Em 590 nm) was recorded after 30-90 min. incubation using a Tecan plate reader. Percentage viability was determined by PrestoBlue HS staining and normalized to 1 μM taxol treated cells.
(§2) The normalized fluorescence values were imported into the graph program, Sigma Plot, data plotted as ADC concentration versus normalized fluorescence signal and curve fitted using a four-parameter Hill equation: f=y0+a*x^b/(c^b+x^b) to calculate IC50 values. IC50 values for the ADCs were generally consistent between the xCELLigence and Presto Blue assays.

The test system of data set [4] is HPAFII. As to the kind of experiment: PrestoBlue live/dead cell assay, HPAFII. It counts as cell-based, human. To be noted: Presto Blue; 72-120 hour incubation. The protocol:
as §1, §2

Data set [5] concerns HPAFII-MUC1*. As to the kind of experiment: PrestoBlue live/dead cell assay, HPAFII-MUC1*. It is filed as cell-based, human. To be noted: Presto Blue; 72-120 hour incubation. The protocol:
as §1, §2

The nature of data set [6]: Toxicity in animal studies. It is filed as in vivo. The note with it: each antibody incorporated into several ADC formats. The text has this:
Exatecans and deruxtecans can also have bystander effects. […] It is not completely clear whether these side effects are due to the payload or to the HER2 target, which is also expressed on normal lung and normal heart. The first two patients treated with a HER2 targeting CAR T cell product died shortly after the infusion. […] More recently, yet another patient died after being treated with a different HER2-targeting ADC. […] 32CB1, C2 and 20A10 unexpectedly have an extremely high degree of cancer specificity and elicited no toxicities in animal studies, where each antibody was incorporated into several ADC formats.

Data set [7] addresses T1, PSMGFR C-10 peptide.
T1 peptide: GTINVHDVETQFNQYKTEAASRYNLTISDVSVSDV
As to the kind of experiment: ELISA on PSMGFR C-10 peptide; Table 4 grade. (In general: In an ELISA, binding on a coated surface is turned into a signal by an enzyme label.)

The test system of data set [8] is T47D. As to the kind of experiment: xCELLigence impedance cytotoxicity, T47D. It counts as cell-based, human. The note with it: Example 9 (FIGS. 35-36); average over batches for DXd ADCs; read-out: IC50 for killing of breast cancer T47D-wt cells. The protocol:
(§3) An xCELLigence RTCA MP Instrument (Agilent) was used to assess real-time killing of target cancer cells). In the xCELLigence system, target cancer cells, which are adherent, are plated onto electrode array 96-well plates. Adherent cells insulate the electrode and increase the impedance. The number of adherent cancer cells is directly proportional to impedance. […] Therefore, increasing impedance reflects the growth of the cancer cells and decreasing impedance reflects the killing of the cancer cells.
(§4) Target Cancer cells (Table 9) were seeded onto a multi-electrode well plate at a density of 5000 cells/well (100 μL of a 50,000 cells/mL stock) and incubated for 24 hr in a 37° C./5% CO2 incubator. ADCs were prepared as a 2× solution in corresponding growth media and 100 μL of each concentration was added to target cells. As a positive control (100% cell killing) cells were treated with either 1% triton or 1 μM Taxol instead of ADC. After 40-120 hours incubation in a 37° C./5% CO2 incubator cell killing was assessed. In this assay, impedance is measured in real-time. When the adherent cancer cells are killed and come off the electrode surface, impedance (insulation) decreases.

In data set [9] the test system is NCI-H1975. Nature of the data set: xCELLigence impedance cytotoxicity, NCI-H1975. It is filed as cell-based, human. The note with it: Example 9 (FIGS. 35-36); read-out: IC50 for killing of H1975-wt cells. On the procedure: as §3, §4
Data set [10] concerns CFPAC1-wt pancreatic cancer cell line. Nature of the data set: xCELLigence impedance cytotoxicity, CFPAC1. It counts as cell-based, human. The note with it: Example 9 (FIGS. 35-36); read-out: IC50, CFPAC1-wt pancreatic cancer cells. The protocol:
as §3, §4
(§5) To directly compare the C2 and 3C2B1 anti-MUC1* antibodies as ADC targeting domains, a panel of MUC1* positive cancer cell lines representing different cancer types were treated with C2-deruxtecan versus 3C2B1-deruxtecan (FIG. 35) or C2-MC-VA-PAB-exatecan versus 3C2B1-MC-VA-PAB-exatecan (FIG. 36). In some cases, the cancer cells were engineered to express high levels of MUC1*45.

The subject of data set [11] is H2110-wt lung cancer cell line. Nature of the data set: xCELLigence impedance cytotoxicity, H2110. It counts as cell-based, human. The note with it: Example 9 (FIGS. 35-36); read-out: IC50, lung cancer H2110-wt cells. The protocol: as §3, §4, §5

This is an account of results in US20260137799A1, “ANTI-MUC1* ANTIBODY DRUG COMPLEXES AND USES THEREOF” (Minerva Biotechnologies Corporation, priority 2023, published 2026).

As a reminder, the IC50 is the concentration at which inhibition is half-maximal.

B1: C2-deruxtecan (antibody, mouse IgG1, kappa)
VH: EVQLEESGGGLVKPGGSLKLSCAASGFTFSGYAMSWVRQTPEKRLEWVATISSGGTYIYYPDSVKGRFTISRDNAKNTLYLQMSSLRSEDTAMYYCARLGGDNYYEYFDVWGAGTTVTVSSAKTTPPSVYAKTTPPSVYPLAPGSAAQTNSMVTLGCLVKGYFPEPVTVTWNSGSLSSGVHTFPAVLQSDLYTLSSSVTVPSSTWPSETVTCNVAHPASSTKVDKKIVPRDCGCKPCICTVPEVSSVFIFPPKPKDVLTITLTPKVTCVVVDISKDDPEVQFSWFVDDVEVHTAQTQPREEQFNSTFRSVSELPIMHQDWLNGKEFKCRVNSAAFPAPIEKTISKTKGRPKAPQVYTIPPPKEQMAKDKVSLTCMITDFFPEDITVEWQWNGQPAENYKNTQPIMDTDGSYFVYSKLNVQKSNWEAGNTFTCSVLHEGLHNHHTEKSLSHSPGK
VL: DIVITQSTASLGVSLGQRATISCRASKSVSTSGYSYMHWYQQRPGQPPKLLIYLASNLESGVPARFSGSGSGTDFTLNIHPVEEEDAATYYCQHSRELPFTFGGGTKLEIKRADAAPTVSADAAPTVSIFPPSSEQLTSGGASVVCFLNNFYPKDINVKWKIDGSERQNGVLNSWTDQDSKDSTYSMSSTLTLTKDEYERHNSYTCEATHKTSTSPIVKSFNRNEC
modifications: deruxtecan (MC-GGFG-AM-DXd) on reduced cysteine thiols of the antibody, sites not stated; deruxtecan (MC-GGFG-AM-DXd) on reduced cysteine thiols of the antibody, sites not stated; average DAR 7.7
In the case of B1, in data set [1], the “IC50, killing of H1975 lung cancer cells engineered to express MUC1*45 (xCELLigence)” value worked out at 54 nM and the “IC50, killing of T47D breast cancer cells engineered to express MUC1*45 (xCELLigence)” value amounted to 2 nM.

B2: C2 MC-VA-AM DXd (conjugate, listed as Mus sp.)
heavy: B1 VH
light: B1 VL
modifications: conjugated MC-VA-AM DXd linker-toxin
Turning to B2, the “IC50 compared to deruxtecan ADC” value in [2] is recorded as “three-fold lower”.

B3: C2 MC-VC-PAB MMAF (conjugate, listed as Mus sp.)
heavy: B1 VH
light: B1 VL
modifications: MC-VC-PAB-MMAF
notes: ADC: antibody C2 conjugated via MC-VC-PAB linker to MMAF
As to B3, the IC50 worked out at 1.3 nM in data set [3], 100 nM in data set [4] and 90 nM in data set [5].

B4: 20A10: anti-MUC1* monoclonal antibody, IgG2b isotype (antibody)
VH: EVMLVESGGGLVKPGGSLKLSCAASGFTFSTYAMSWIRQTPEKRLEWVASIGRAGSTYYSDSVKGRFTISRDNVRNILYLQMSSLRSEDTAMYYCARGPIYNDYDEFAYWGQGTLVTVSAAKTTPPSVYPLAPGCGDTTGSSVTLGCLVKGYFPESVTVTWNSGSLSSSVHTFPALLQSGLYTMSSSVTVPSSTWPSQTVTCSVAHPASSTTVDKKLEPSGPISTINPCPPCKECHKCPAPNLEGGPSVFIFPPNIKDVLMISLTPKVTCVVVDVSEDDPDVRISWFVNNVEVHTAQTQTHREDYNSTIRVVSALPIQHQDWMSGKEFKCKVNNKDLPSPIERTISKIKGLVRAPQVYILPPPAEQLSRKDVSLTCLVVGFNPGDISVEWTSNGHTEENYKDTAPVLDSDGSYFIYSKLDIKTSKWEKTDSFSCNVRHEGLKNYYLKKTISRSPGK
VL: NIMMTQSPSSLAVSAGEKVTMSCKSSQSVLYSSNQKNYLAWYQQKPGQSPKLLIYWASTRESGVPDRFTGSGSGTDFTLTISSVQAEDLAVYYCHQYLSSLTFGAGTKLELKADAAPTVSIFPPSSEQLTSGGASVVCFLNNFYPKDINVKWKIDGSERQNGVLNSWTDQDSKDSTYSMSSTLTLTKDEYERHNSYTCEATHKTSTSPIVKSFNRNEC
For B4, in data set [6], the “toxicities in animal studies” value is given as “no toxicities”.

B5: anti-MUC1* antibody 20A10 (antibody, IgG2b, V domains shown)
VH: EVMLVESGGGLVKPGGSLKLSCAASGFTFSTYAMSWIRQTPEKRLEWVASIGRAGSTYYSDSVKGRFTISRDNVRNILYLQMSSLRSEDTAMYYCARGPIYNDYDEFAYWGQGTLVTVSA
VL: NIMMTQSPSSLAVSAGEKVTMSCKSSQSVLYSSNQKNYLAWYQQKPGQSPKLLIYWASTRESGVPDRFTGSGSGTDFTLTISSVQAEDLAVYYCHQYLSSLTFGAGTKLELKA
notes: Humanised form is m25
As for B5, in [7], the binding result is on record as “no binding”.

B6: 3C2B1-MC-VA-PAB-exatecan (antibody, V domains shown)
VH: EVMLVESGGGLVKPGGSLKLSCAASGITFSTYTMSWVRQTPEKRLEWVATISTGGDKTYYSDSVKGRFTISRDNAKNNLYLQMSSLRSEDTALYYCARGTTAMYYYAMDYWGQGTSVTVSS
VL: DIVLTQSPASLAVSLGQRATISCRASKSISTSDYNYIHWYQQKPGQPPKLLIYLASNLESGVPARFSGSGSGTDFTLNIHPVEEEDAATYYCQHSRELPLTFGAGTKLELK
modifications: MC-VA-PAB-exatecan on reduced cysteine thiols of the antibody, sites not stated; MC-VA-PAB-exatecan on reduced cysteine thiols of the antibody, sites not stated; DAR 5.2
For the molecule B6, the “IC50, killing of H1975 cells engineered to express MUC1*45 (xCELLigence)” value in data set [1] worked out at 141 nM. In data set [1], the “IC50, killing of T47D cells engineered to express more MUC1*45 (xCELLigence)” value came to 31 nM. Further, the IC50 in [8] is 77 nM; in data set [9], 189 nM; in [10], 40 nM; in [11], 113 nM.
